Experimental data: PMC10173331
Where two headings read alike, the source gives them in different places.

Columns and labels:
[1] = biological target: T1, clusterin (apolipoprotein J) (UniProt P10909 23-449); assay: AuNP colorimetric aggregation assay
[2] = biological target: T1, clusterin (apolipoprotein J); assay: AuNP colorimetric aggregation assay; remark: listed apart in the source

T1 sequence (P10909 23-449): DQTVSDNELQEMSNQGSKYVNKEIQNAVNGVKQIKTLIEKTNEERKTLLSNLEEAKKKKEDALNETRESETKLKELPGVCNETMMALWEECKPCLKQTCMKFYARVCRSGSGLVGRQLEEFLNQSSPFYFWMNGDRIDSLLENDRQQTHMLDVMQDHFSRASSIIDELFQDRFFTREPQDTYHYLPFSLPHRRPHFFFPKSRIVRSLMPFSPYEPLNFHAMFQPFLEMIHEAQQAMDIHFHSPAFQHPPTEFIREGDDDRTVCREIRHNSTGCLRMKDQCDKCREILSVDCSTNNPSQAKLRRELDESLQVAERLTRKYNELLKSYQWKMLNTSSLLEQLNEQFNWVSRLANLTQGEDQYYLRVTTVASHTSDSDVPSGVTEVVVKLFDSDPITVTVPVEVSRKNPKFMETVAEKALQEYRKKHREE

Binder	binding result [1]	binding result [2]
clusterin 1 (ssDNA) DNA: CTCCTCTGACTGTAACCACGTTAGGCGAGAACATGTCAGTACGTCGACGTTCTACTTGCTGCATAGGTAGTCCAGAAGCC	binds	–
CTCCTCTGACTGTAACCACGTTAGGCGAGAACATGTCAGT (ssDNA) [clusterin 2]	–	binds
